Paper PMC7160950, “Identification and analysis of KLF13 variants in patients with congenital heart disease” (BMC Medical Genetics, 2020)

Target: Kruppel-like factor 13 (KLF13), wild type, myc-tagged (human, UniProt Q9Y2Y9 1-288)
Assay: cell-based or functional assay

Chain of Kruppel-like factor 13 (KLF13), wild type, myc-tagged (Q9Y2Y9 whole entry): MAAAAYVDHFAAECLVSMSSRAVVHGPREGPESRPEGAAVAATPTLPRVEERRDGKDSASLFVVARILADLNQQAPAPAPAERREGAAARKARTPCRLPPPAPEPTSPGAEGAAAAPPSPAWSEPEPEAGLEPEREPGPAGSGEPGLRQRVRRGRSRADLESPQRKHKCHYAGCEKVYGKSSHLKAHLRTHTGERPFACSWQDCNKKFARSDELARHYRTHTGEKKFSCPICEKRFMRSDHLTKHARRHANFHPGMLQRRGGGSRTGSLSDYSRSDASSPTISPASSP

B1: TBX5 (natural protein, UniProt Q99593 1-518, looked up)
chain: MADADEGFGLAHTPLEPDAKDLPCDSKPESALGAPSKSPSSPQAAFTQQGMEGIKVFLHERELWLKFHEVGTEMIITKAGRRMFPSYKVKVTGLNPKTKYILLMDIVPADDHRYKFADNKWSVTGKAEPAMPGRLYVHPDSPATGAHWMRQLVSFQKLKLTNNHLDPFGHIILNSMHKYQPRLHIVKADENNGFGSKNTAFCTHVFPETAFIAVTSYQNHKITQLKIENNPFAKGFRGSDDMELHRMSRMQSKEYPVVPRSTVRQKVASNHSPFSSESRALSTSSNLGSQYQCENGVSGPSQDLLPPPNPYPLPQEHSQIYHCTKRKEEECSTTDHPYKKPYMETSPSEEDSFYRSSYPQQQGLGASYRTESAQRQACMYASSAPPSEPVPSLEDISCNTWPSMPSYSSCTVTTVQPMDRLPYQHFSAHFTSGPLVPRLAGMANHGSPQLGEGMFQHQTSVAHQPVVRQCGPQTGLQSPGTLQPPEFLYSHGVPRTLSPHQYHSVHGVGMVPEWSDNS
- BNP-luciferase reporter activation in NIH 3 T3 cells cotransfected with KLF13 and TBX5: ≤ 75 fold
